Laboratory results as given in patent publication US20250197487A1 (AKESO BIOPHARMA, published 2025).

Assays:
[1] = biological target: T1, PD-1 on the surface of 293T-PD-1 cells (UniProt Q15116 25-288, limits assumed); test: FACS, 293T-PD-1 cells
T1 construct: whole, on cells
Protocol: (§1) Then PBS was used for washing, and 300 μL of PBSA was used to resuspend the cells, and fluorescence signals (MFI) were detected with FITC channel on a flow cytometer.

[2] = biological target: T1, PD-1 on the surface of 293T-PD-1 cells; test: FACS (2nd), 293T-PD-1 cells
Protocol: as §1

fusion protein PD-1-mFc [3] = biological target: T2, fusion protein PD-1-mFc (human, UniProt Q15116 25-170); test: indirect ELISA, antibody 0 (blank)
T2 construct: also called human PD-1-mFc; not shown: mFc (Fc of mouse IgG)

[4] = biological target: T1, PD-1 on the surface of 293T-PD-1 cells; test: FACS, 293T-PD-1 cells, antibody 100 nM
Protocol: as §1

fusion protein PD-1-mFc [5] = biological target: T2, fusion protein PD-1-mFc; test: indirect ELISA, PD-1-mFc coat 0.5 µg/mL
Protocol: (§2) The microplate was coated with human PD-1-mFc and incubated overnight at 4° C. After being blocked with 1% BSA at 37° C. for 2 hours, the microplate was added with antibody, and then incubated at 37° C. for 30 minutes. […] After the microplate was washed and patted dry, TMB (Neogen, 308177) was added for color developing for 5 minutes, and then stop solution was added to terminate the color development. Then the microplate was put into a microplate reader immediately, and the OD value of each well in the microplate was read at 450 nm. SoftMax Pro 6.2.1 was used to analyze and process the data.

[6] = biological target: T1, PD-1 on the surface of 293T-PD-1 cells; test: FACS, 293T-PD-1 cells, antibody 0.14 nM
Protocol: as §1

[7] = biological target: T1, PD-1 on the surface of 293T-PD-1 cells; test: FACS, 293T-PD-1 cells, antibody 0.41 nM
Protocol: as §1

[8] = biological target: T1, PD-1 on the surface of 293T-PD-1 cells; test: FACS, 293T-PD-1 cells, antibody 1.23 nM
Protocol: as §1

[9] = biological target: T1, PD-1 on the surface of 293T-PD-1 cells; test: FACS, 293T-PD-1 cells, antibody 3.70 nM
Protocol: as §1

[10] = biological target: T1, PD-1 on the surface of 293T-PD-1 cells; test: FACS, 293T-PD-1 cells, antibody 11.11 nM
Protocol: as §1

[11] = biological target: T1, PD-1 on the surface of 293T-PD-1 cells; test: FACS, 293T-PD-1 cells, antibody 33.33 nM
Protocol: as §1

[12] = biological target: T1, PD-1 on the surface of 293T-PD-1 cells; test: FACS (2nd), 293T-PD-1 cells, antibody 11 nM
Protocol: as §1

[13] = biological target: T1, PD-1 on the surface of 293T-PD-1 cells; test: FACS (2nd), 293T-PD-1 cells, antibody 30 nM
Protocol: as §1

[14] = biological target: T1, PD-1 on the surface of 293T-PD-1 cells; test: FACS (2nd), 293T-PD-1 cells, antibody 100 nM
Protocol: as §1

[15] = biological target: T1, PD-1 on the surface of 293T-PD-1 cells; test: FACS (2nd), 293T-PD-1 cells, antibody 3.7 nM
Protocol: as §1

fusion protein PD-1-mFc [16] = biological target: T2, fusion protein PD-1-mFc; test: indirect ELISA (2nd), PD-1-mFc coat 0.5 µg/mL
Protocol: as §2

[17] = biological target: T1, PD-1 on the surface of 293T-PD-1 cells; test: FACS (2nd), 293T-PD-1 cells, antibody 0.14 nM
Protocol: as §1

[18] = biological target: T1, PD-1 on the surface of 293T-PD-1 cells; test: FACS (2nd), 293T-PD-1 cells, antibody 0.41 nM
Protocol: as §1

[19] = biological target: T1, PD-1 on the surface of 293T-PD-1 cells; test: FACS (2nd), 293T-PD-1 cells, antibody 1.23 nM
Protocol: as §1

[20] = biological target: T1, PD-1 on the surface of 293T-PD-1 cells; test: FACS (2nd), 293T-PD-1 cells, antibody 0.014 nM
Protocol: as §1

[21] = biological target: T1, PD-1 on the surface of 293T-PD-1 cells; test: competitive FACS (2nd), 293T-PD-1 cells, competitor PD-L1
Protocol: (§3) Then 500 μL of 1% PBSA was added, and the mixture was centrifuged at 5600 rpm for 5 minutes to remove the supernatant. 100 μL of FITC […] anti mouse antibody diluted at a ratio of 1:500 was then added into each tube, and the mixture was incubated on ice for 40 minutes in the absence of light after being mixed well. Then the mixture was centrifuged, washed and resuspended, and then transferred to a loading tube for testing.

[22] = biological target: T1, PD-1 on the surface of 293T-PD-1 cells; test: competitive FACS, 293T-PD-1 cells, competitor PD-L1-mFc 20 nM
Protocol: as §3

fusion protein PD-1-mFc [23] = biological target: T2, fusion protein PD-1-mFc; test: BLI (Fortebio), antibody on AHC sensor, PD-1-mFc 0.62-50 nM, 1:1 fit
Protocol: The sample dilution buffer was PBS (0.02% Tween-20, 0.1% BSA, pH7.4). 5 μg/mL antibody was immobilized to an AHC sensor with the immobilization height being about […]. The sensor was equilibrated in a buffer for 60 s, and the antibody immobilized to the sensor bound to PD-1-mFc at a concentration of 0.62-50 nM (three-fold gradient dilution) for 120 s, and then the antigen and antibody dissociated in the buffer for 300 s. The data were analyzed by 1:1 model fitting to obtain affinity constants. The data acquisition software was Fortebio Data Acquisition 7.0, and the data analysis software was Fortebio Data Analysis 7.0.

fusion protein PD-1-hFc = biological target: T3, fusion protein PD-1-hFc (UniProt Q15116 25-170); test: competitive ELISA, PD-1-hFc coat 0.5 µg/mL, competitor PD-L1-mFc 0.3 µg/ml
T3 construct: not shown: hFc (Fc of human IgG)
Protocol: The microplate was coated with PD-1-hFc and incubated overnight at 4° C. […] After incubation at 37° C. for 30 minutes, the microplate was washed and patted dry. Then enzyme-labeled secondary antibody was added, and the microplate was incubated at 37° C. for 30 minutes. After the microplate was washed and patted dry, TMB was added for color developing for 5 minutes, and then stop solution was added to terminate the color development. […] SoftMax Pro 6.2.1 was used to analyze and process the data.

T1 sequence (Q15116 25-288 limits assumed): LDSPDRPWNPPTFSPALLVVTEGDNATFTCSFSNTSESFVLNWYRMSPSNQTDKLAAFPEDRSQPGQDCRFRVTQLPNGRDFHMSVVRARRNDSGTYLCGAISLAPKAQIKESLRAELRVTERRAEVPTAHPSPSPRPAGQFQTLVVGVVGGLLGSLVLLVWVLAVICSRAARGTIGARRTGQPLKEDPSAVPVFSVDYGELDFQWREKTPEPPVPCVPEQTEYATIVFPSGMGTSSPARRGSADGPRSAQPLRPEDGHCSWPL
T2 sequence (Q15116 25-170): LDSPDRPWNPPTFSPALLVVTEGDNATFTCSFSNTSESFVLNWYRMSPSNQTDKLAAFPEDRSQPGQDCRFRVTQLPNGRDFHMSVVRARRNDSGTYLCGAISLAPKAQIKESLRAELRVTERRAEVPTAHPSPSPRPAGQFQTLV
T3 sequence (Q15116 25-170): as above

EC50 [1]: 2.9 nM | EC50 [2]: 3.61 nM | OD 450 nm (fusion protein PD-1-mFc [3]): 0.053 | MFI [4]: 671 | EC50 (fusion protein PD-1-mFc [5]): 0.037 nM | MFI [6]: 48.1 | MFI [7]: 99.7 | MFI [8]: 202 | MFI [9]: 409 | MFI [10]: 600 | MFI [11]: 655 | MFI [12]: 868 | MFI [13]: 831 | MFI [14]: 814 | MFI [15]: 423 | EC50 (fusion protein PD-1-mFc [16]): 0.045 nM | MFI [17]: 29.6 | MFI [18]: 69.2 | MFI [19]: 176 | MFI [20]: 7.4 | EC50 [21]: 9.21 nM | EC50 [22]: 4.37 nM | Kd (fusion protein PD-1-mFc [23]): 0.164 nM | EC50 (fusion protein PD-1-hFc): 0.745 nM
B1: anti-PD-1 humanized antibody 14C12H1L1 (antibody, V domains shown)
VH: EVQLVESGGGLVQPGGSLRLSCAASGFAFSSYDMSWVRQAPGKGLDWVATISGGGRYTYYPDSVKGRFTISRDNSKNNLYLQMNSLRAEDTALYYCANRYGEAWFAYWGQGTLVTVSS
VL: DIQMTQSPSSMSASVGDRVTFTCRASQDINTYLSWFQQKPGKSPKTLIYRANRLVSGVPSRFSGSGSGQDYTLTISSLQPEDMATYYCLQYDEFPLTFGAGTKLELK
